Measurements as given in FireProtDB (doi:10.1021/bi960052u).

Conditions: Equus caballus, pH 7, 10 °C, GdnHCl, Fluorescence, Sodium phosphate 0.1 M

Chain of Cytochrome c L95V, P00004 (P00004 whole entry L95V): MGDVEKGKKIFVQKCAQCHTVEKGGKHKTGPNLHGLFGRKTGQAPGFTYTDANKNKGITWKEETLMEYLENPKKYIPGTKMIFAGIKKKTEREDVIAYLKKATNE
Chain of Cytochrome c L95A, P00004 (P00004 whole entry L95A): as the sequence (P00004 whole entry L95V) above, with V95A counted along it
Chain of Cytochrome c L95I, P00004 (P00004 whole entry L95I): as the sequence (P00004 whole entry L95V) above, with V95I counted along it
Chain of Cytochrome c wild type, P00004 (P00004 whole entry): as the sequence (P00004 whole entry L95V) above, with V95L counted along it

Cytochrome c wild type, P00004
denaturant m value: 3.5 kcal/mol/M
denaturant midpoint (higher = more stable): 2.77 M
unfolding free energy: 9.7 kcal/mol

Cytochrome c L95A, P00004
ddG of mutation (higher = less stable) (structure 1AKK): 3.5 kcal/mol
denaturant m value (structure 1AKK): 3.7 kcal/mol/M
denaturant midpoint (higher = more stable) (structure 1AKK): 1.67 M
unfolding free energy (structure 1AKK): 6.2 kcal/mol

Cytochrome c L95V, P00004
ddG of mutation (higher = less stable) (structure 1AKK): 0.8 kcal/mol
denaturant m value (structure 1AKK): 3.6 kcal/mol/M
denaturant midpoint (higher = more stable) (structure 1AKK): 2.47 M
unfolding free energy (structure 1AKK): 8.9 kcal/mol

Cytochrome c L95I, P00004
ddG of mutation (higher = less stable) (structure 1AKK): -0.2 kcal/mol
denaturant m value (structure 1AKK): 4 kcal/mol/M
denaturant midpoint (higher = more stable) (structure 1AKK): 2.47 M
unfolding free energy (structure 1AKK): 9.9 kcal/mol
